Molecular target: T1, recombinant NS1 protein from Zika virus MR766 (Zika virus MR766 (Rhesus/1947/Uganda))
T1 construct: also called MR766 NS1; NS1 from MR766; source: Expi293 cells transfected with pCAGGS-MR766-NS1, purified from the supernatant (Ni-NTA)
Test: ELISA; plates coated with recombinant ZIKV NS1 at 2 μg per mL in pH 9.41 carbonate buffer overnight at 4 °C; mAbs from 10 μg per mL, serially diluted 3-fold, 2 h at room temperature; detected with HRP-conjugated goat anti-human IgG
Settings: both partners purified

B1: AA12 LALAPG (antibody, V domains shown)
VH: EVQLVESGGGLIQPGGSLRLSCAASGFTVSSNYMSWVRQAPGKGLEWVSVIYSGGSTYYADSVKGRFTISRDNSKNTLYLQMNSLRAEDTAVYYCARDRRGFDYWGQGTMVTVSS
VL: DIQMTQSPLSLSASVGDRVTITCRTSQSISSYLNWYQQKPGKAPKLLIYAASSLQSGVPSRFSGSGSGTDFTLTISSLQPEDFATYYCQQTYSTPLTFGGGTKVEIK
notes: also called mutated form of AA12; mutant AA12 mAb
B1: binds.
